Test results from the DeepSol protein solubility set.

Test: soluble on expression in E. coli; label from the status in PepcDB or PDB records

Soluble on expression in E. coli, not soluble:
MGSDKIHHHHHHMFAERLERARKAAGLSMNALANEVGLSANAIKKYEHGTAMPSSSNLLKLAKALDVRTEYFFRPTKVKLEGVEYRKRASTPKKVLDRINGDVLEQAERWQELLELYPDSVKPIPEFTLPNELPEQITSIEQVEDLAIQMRHAWDLGLNPIHDMIDTLEAKGVMIITTDVETDKKFDGLAGKIGSTPVVVISTAQSGDRQRFTLAHELGHLVVHGRLVEALDEEKACNTFAGAFLLPTQTLIEHLGEKRRHIEPRELLMLKHEYGISMLAALFRAGQCGIITPATQKNLFMLFSKNGWRTEEPGKAYPHESTYLHKQLVYRALGEEYIGESKAAELLGMSVSSFHKERKLEVPIQSQLALEAKGAAASN, MGSDKIHHHHHHMFDMFEKAVVFGLYSITPVHAGSGAELSVIDLPIQRERHTGFPVIWGQSLKGVLRSRFRQLELDEKIEVESQKWKWKEKTKEVLKEKADEFIKKVEERKRDPLLTEIVFGPATDGASEHAGAVSVGDAKILLFPVRSAKGVFAFVTSPIVIQRLKEDFELVSEIENDIELKQILSRFKVELSNNETIAGNALILNGENKVILEDIVLKVKSDSNVIENLVEVLKTLFGDNFFGKPIESIKERIAIVSDDVFKSFTRFSTEIVARVRIDAEKGTVARGGLWYEEFLPSDTLMYSLIAVGSPKKENLPKEVDNTQKIVNVLKVTFNNAFLQIGGDETVGKGFVKVRAGVLTGGHKGN, MGSDKIHHHHHHMFDVCLFKKMNILYATCFLDVSGVTRLNYDILARLAGKNNIYVCETASDGRLTSKLENHFRDSFGEPFKLFRYPLQDRYRRFLEYLDSNAIDLVFNTHSLWVYEHIAKLKKDRSNLKVVDSLHVLEPYCFRGGYPDISANRYVHPFIDKSIVISEHLLSYIKRSYSVDPGKFIIIRNGVDTTRFKKDSSLKGIFRNELGVPANFPLIGYIGRFSRQKRPDVFLDVAKHLLGKLGEVYFYMAGDGDLLDKSKKLADSLGISNRVSFVAPRDDIHIVLNSTDMLVLTSSYEGAPLTILEALATGVPVVASDVGAISEYVGTPYVVQRQGRGAEVDQFAEAILRGLNDNYPSIFDREIFSLDYVADSYARVFYDTAVRTSTTQEN, MGSDKIHHHHHHMFEKQFNHRTLETSLGPVEIEGPVTSQILATYKLDPGLTAFRQPAEQHEALVEIAALEEGRIIIARQGNDIIGYVTFLYPDPYETWSEGNNPYILELGAIEVAARFRGQQIGKKLLEVSMLDPAMEHYLILTTEYYWHWDLKGSGLSVWDYRKIMEKMMNHGGLVFFPTDDPEIASHPANCLMARIGKHVAPEVVAHFDALRLRRRFMYD, MGSDKIHHHHHHMFFEGVEQLIEEILKLRKQGLSFRKIAQALNTTVGKVHYRYKKHEELQHQKGQAKPAAKGEWQLPGSYPVTEITLLPQGPTTLYAFWDTSEQTRGLVSYQTDKDWEQLEKRLRLYDVTSLLFDGRRANRYVDIHLPEMTNNWLIEHVEPNCTYLIDLGVITPSGAFLPVVRSTPIETPRQRNDQYNFRKEDVLDWQYGLSEEPKWLEHFSTYSYYEKTK, MGSDKIHHHHHHMFFEIALIGTTASGKTYIANTLAREFNAVVLSLDSLCVYKEINIASAKPSQDDLASIKYFGVNLLSVNEHFNVELFIREYQKAKEFALARNLPLIIVGGTGFYLKTMIDGLSEKTLESKSSLNNDEIYALLLNIDPNYKIEKNDTYRLKKWLGIYEQTREIPSEFLKRTQKTGVLKDIEIYELAWDKEILKKRIKTRTKEMLDNGLLDEAKILFSKFDHKLKALNSIGLKECKEYLDGEISFKELENLITIHTTQLAKRQRTFNKKFQSKALEFDKALATLRMKFSIEK, MGSDKIHHHHHHMFFYNIHQPMKTLIENLTSDLLPNQIFQTGFSFLIILKGNSLLKLDSNVLIFIMSGTMKVSSAQQELATVRERHIFFWDKEDDYTCEMLSDSQVILFAFGDLIVHDLLTFRPFGAISDSSVSKDVGLKFAEPLNSFLQLLAQYMEMNLYDLSLYIAKQRELFYILNSVYNEQELAILFSSLTEQSSRFKEQILENYLSAKNVGELASLLGYGVTNFRAKFKEQFGVSVYRWLLNRKSQHIIYRITVYGDEFSQIIDDFGFSSPSHFNKFCRSQYGLTPCELRKKLKTNNNS, MGSDKIHHHHHHMFKKIVLHGWRQFRNVDIDFHPRLTVLTGANGAGKTTLLNLVSRHFGWDGSFISTPVPRRSNPSLMYSTDFWDIDDIQVDIIHSFEREQNRKKQAAAQGSQTTIGKIIYGDGTETLITVPNSEVGSRYDVSIPARQRIDGLHIPSHRAPSTYQQVQNIPTIPRRRQEVFNQYLSLVQSRYLGSYTQWSPQYYMKETLISLATFGYGNAVVDADPESARLFEGFQEILRKMLPPKLRFKRLQIRVPEVILETETGNFSIDALSGGAAAVIDLAWQVFMYEPSESEFVVTLDEPENHLHPELQQRVLADLLTAFPSVQFVVATHSPFIVGSVPHSHVYVLGYDDSRRVNSTLLDTVNKTGTANEILRDVLGLEFTIPVWVENRLENLIEKYSKKDFTEDNLMMLRQEMTSLGLGKHVPQTISMLAQKKDGQ, MGSDKIHHHHHHMFLILLEVIVTSCPLLSSSFARLNPIPLDDAVIRTFMFIILHCKDKSIANPGAIIYKPFYPKFRVMERNELVNFVEGILKRIGFRTMKLEFRGGCFDLVATRQLLLLFIKALANIDKFSEEQAEDLKKLAKLFKASPLLVGLRSKNAELEDGVVYERFGIYAITPGTLYSMFAEGEPPLIIAERGGFYVRIDGKKLKALREEHGYSITELAGILGISRKSLQRYEKGESVVSLEVALRLEEVFDEPLVKPIDVLRARLKDVTLTSEPDNILEKEVFEKLRKLGMSVVKIKTAPFNAITKEEEDDIELLTGIDERKTGRTLKRAELVSQMAEVVGSDGVFVVKKARMEVVRNVPILPKKLLEEIKDADELLELIRDLKFKS, MGSDKIHHHHHHMFMERQDRYYQTYLNILKEELVAAMGCTEPIAIAYGAAKAREVLGAVPHKVVLEVSSNIIKNVKSVVVPNTDGLKGIEAATAAGIIAGRSDKILEVIAEVCQAEKQQIKTYLSETDIEVKLADSQIIFDIMITMFHQDSYVKLRIADYHTHIVHIEKNGEIIFGTGDLDAGISSLTDRKLLSVSKIIEFADSVRIEDVKELLDKQIEYNSAIARAGMEGNYGANVGRVLLKTYGNDVKIRAKAMAAAGSDARMSGCELPVIINSGSGNQGMTASLPVIEYAAELQSGEEKLYRALVVSNLITLHLKTGIGRLSAFCGVICAGCGSGAGIAYLHGGGYDEIAHTIVNAAAIVSGIVCDGAKPSCAGKIAAAVDAGILGYLMYKEGQQFRGGDGIVAKGIENTIANIGYLGKVGMKETDKEIINIMLNQCSS, MGSDKIHHHHHHMFTGTFTLRSRKSRHDHSSGNVRVCENEDMFESVGTWWRNLTHRHGDDRNNDDTLDDATNTLLSILPLASIVVDEHDEVIRAHPDAYALGVVRDDAIADDTVASAVHEVRAHGGKKQFSLTTTTLHEPKKAPKAGKPTMREVAKQALIGQSPDKPVTTVSRPNWLKVIVGRLNERFVVVLVSDVSETVRFSQIRDSFITNVSEQLLKPTQSLEELADALEHDSDNKAAIEGNTVKLRQSCARMEHMVSDLLLLIKAQEPILPTASNRINVMEQVKTVVDAHRDMAQRRGIDIEIDGDESLDINGEGEQIQAAVAKLLENAIAYSPDGKGITVSVKPNEDGTKVLLSVLDRGCGIAQKEQSRIFERFYRGGNQNGHSEEGIGLGLAIVKHVALTHHGSASVWSAPGQGSTFTLGLPVARN, MGSDKIHHHHHHMFTRRFIPVVQSTKQNIGKYVRKDARFTLLTYNMLSPSYMWPQVYTYVAEPYKNWSYRHRLLEKELLNTFKADIMCLQEMTARDYEDYWHDSIGVDVNYGSKFISKTPPKYWKKPVKDMDGVSIFYNLAKFDFISSSGIYLNQLLNVFNQRELKYLYNKKVTLTDGASNVIGEDSLLDVLKGKNQVCLFVSLRHKETGTIFVVLNTHLYWKYDEVKLTQCMIIMRELSKIIKQLLPGDVKGQERVKILFTGDLNSTRDSLVVNFLQGQIVSHGDLNLINPMRPYLDRCVYDDIPKDYFVHTCYSGKLKGIFDYVWYHDSDFLLTKILTGNEVSDELLASNQLGLPNENHPSDHIPLLTEFKIL, MGSDKIHHHHHHMFTVMDIVQPDTVEEAYSILNKRKTNQVIGGSAFLRMGKKRIGTGIELSKLNLDYIKEYEDYVEIGSMTTFRTLETSSIIKNNFGRIIEDSVKNIIGVQFRNVVTVGATVFSKYGFSDLIVALLSLDTEVELYNIGRISLEEFLNRDYEKDLLIKIYIKKTNKNASYKSLRNAKSDYPILNVSVSKHMEQFKLCVGARPQKATIAKQASEFLSNNEINEINIDKAVEIASEELTFGSNMRASREYRKAMSKVLLKRAIMEVI, MGSDKIHHHHHHMFVGASEFRLTDAEHGLSFPVLVMYPTRQLPSRHAFGPYLMDVSMNAPIAGGQHPLILVSHGSGGSHLLYRTMTAHLAQHGYVVAMIEHPGNNRVDNQFMGKVENLQYRPRHLRLTADALYGDAVLGPHLQAGRIGVIGHSMGGYTALALAGGTPWYPPEAFQPDYRGPAPAVVDVEHDDRVKALVLLAPATVWFMPEHALEDVDVPILMLSAEHDPYTPAWHGEIVRKGVRDPANVTSRCVKNAGHFSFLSPFPPKIKQGGALPTIDPEGFDRERFHEQLKQEILAYFNLRLKTAPA, MGSDKIHHHHHHMFVQHDERSRPCCCSFISFKYLKTTTPQEEEMPKKPKPNNFHDELNFARFGVISMHSRIDREVTSWKSEFTINGRTFRIEAITPEGRPHGIDTDTLVAVETLFVASSCPEDNWVHTTAYEMRELMGLGNNGDSYHRLRQSLRRLYLTSVIVGRKTSVANASGRVTWDNVGVRFLEGIRYRDAEDANALSMLDGEATLSIRLGEQLAASIRNGVSQVLDGQLLHQLEQPPARALYRTLQAHRRQDDGTLLDQLRVPLAEWRLATGLTTERTDLVRRALEAAHDELLANRYLEAVSIEGRGKKAYASYTFAERGAADPALVVLLRHAGVTVSRATALAAQHPERVEEACGFWKAAGPARAARYVIPAAWLRTSSRIQANISFRKSSSNLAVNVSSGCRS, MGSDKIHHHHHHMFWFKNALIYRLTKSLDWSVENLQSQLQQCAYSPCQQSDMSRFGWSNPLRESESLSFCVGKQLLLVAHKEEKILPAQVIKRELEERIEQLEQKENRKLKKIEKQALKDDIVATLLPRAFSKNQHTALWIDTENNLIYIDTASTKRAEDCLALLRKSLGSLPVVPLAFANEPSLVMTNWVKENSPQWLTVLEEAELKGSQDQAVIRCKQQVLDSEEMIGLLNSGKYITNLSLNWEEHLSFTLNEDASLKRLKFADQIREQNDDISKEDFAQRFDADFVLMTGILAKLTENLLDEFGGEKERL, MGSDKIHHHHHHMFWKKDPTVSWERKNINDIDFSRFNVAIIGGTGGLGRAISRELAQRNARVTVVGQTFRDEDLKDKINFVKADLSLVSECKRISHSDEIPYEELTHLIFTTGIFASRQRQATSEGLEKDMAVSYLSRYIIFHDVAKRLGISRTKKDDLPKVFIAGFPGNGQVGDPDDLNSDEKKYSAYATHMNTVAANESLVIDAKDRYTNIDTFGLNPGLIKTNIRNNLLGSDTYLSRITEWIISWTCQSAETYAKTICTLIASPAIESRSGTMFSNKGDAILPSPGLTKDVVEKFMENSELLVEKALRNQSPFTSSNE
